In FireProtDB (doi:10.1021/bi00454a022):
Values joined by “and” are separate entries in the source; they are usually repeats but may differ in a detail not shown here. Equal values may be shown once.

Conditions: Bos taurus; pH 7; 25 °C; GdnHCl; CD; Sodium phosphate 20 mM; reversible: yes; whole UniProt chain shown

B1: Gamma-crystallin B wild type, P02526 (protein)
chain: MGKITFYEDRGFQGHCYECSSDCPNLQPYFSRCNSIRVDSGCWMLYERPNYQGHQYFLRRGDYPDYQQWMGFNDSIRSCRLIPQHTGTFRMRIYERDDFRGQMSEITDDCPSLQDRFHLTEVHSLNVLEGSWVLYEMPSYRGRQYLLRPGEYRRYLDWGAMNAKVGSLRRVMDFY
denaturant m value: 1.3 kcal/mol/M
unfolding free energy: 5.2 kcal/mol and 6.5 kcal/mol
